Reference: patent publication US20020041865A1

Experiments:
[1] = molecular target: H520C9sFv-hIL-2 fusion protein (human) (UniProt P60568); assay: cell-based or functional assay
[2] = molecular target: recombinant human IL-2 (human) (UniProt P60568); assay: cell-based or functional assay
[3] = molecular target: p185, the human HER-2/neu (c-erbB2) proto-oncogene product (human) (UniProt P04626); assay: Scatchard analysis on SK-Br-3 cells

Binder | 50% inhibition of [^3H]-thymidine incorporation in CTLL-2 cells (Neutralization Dose 50) for the same dose of H520C9sFv-hIL-2 [1] [µg/mL] | 50% inhibition of [^3H]-thymidine incorporation in CTLL-2 cells (Neutralization Dose 50) for 2 ng/ml rhIL-2 [2] [µg/mL] | Ka [3] [M⁻¹]
mouse anti-human IL-2 mAb MAB202 (antibody, from another filing, V domains shown) VH: DVRLVESGGGLVKPGGSLKLSCAAYGFTFSSYTLAWVRQTPEKRLEWVAAIDSSSYTYSPDTVRGRFTISRDNAKNTLYLQMSSLKSEDTAMYYCTRDSNWDALDYWGQGTSVIVSS VL: DIVMTQSQKFMSTSVGDRVSVTCKASQNVGTNVGWYQQKPGQSPKALIYSASFRYSGVPDRFTGSGSGTDFSLTISNVKSEDLAEYFCQQYYTYPYTFGGGTKLEIK | 0.128 | 0.076 | 
murine monoclonal antibody 520C9 (antibody, from another filing, V domains shown) VH: EIQLVQSGPELKKPGETVKISCKASGYTFANYGMNWMKQAPGKGLKWMGWINTYTGQSTYADDFKERFAFSLETSATTAHLQINNLRNEDSATYFCARRFGFAYWGQGTLVSVSA VL: DIQMTQSPSSLSASLGERVSLTCRASQDIGNSLTWLQQEPDGTIKRLIYATSSLDSGVPKRFSGSRSGSDYSLTISSLESEDFVVYYCLQYAIFPYTFGGGTNLEIK |  |  | 3.5e+08
proteolytically cleaved Fab fragment of 520C9 (Fab, from another filing, V domains shown) VH: EIQLVQSGPELKKPGETVKISCKASGYTFANYGMNWMKQAPGKGLKWMGWINTYTGQSTYADDFKERFAFSLETSATTAHLQINNLRNEDSATYFCARRFGFAYWGQGTLVSVSA VL: DIQMTQSPSSLSASLGERVSLTCRASQDIGNSLTWLQQEPDGTIKRLIYATSSLDSGVPKRFSGSRSGSDYSLTISSLESEDFVVYYCLQYAIFPYTFGGGTNLEIK |  |  | 6.7e+07
